# Laboratory results as given in patent EP3020822A1.
# B1: mAb c1068 (antibody, from another filing, V domains shown)
# VH: QVQLQQPGAELVQPGTSVRLSCKASGYIFTTYWIHWVKQRPGQGLEWIGEINPNNGRINYNEKFKTKATLTVDKSSSTAYMQLSSLTSEDSAVYYCTRVGVMITTFPYWGQGTLVTVSA
# VL: DIQMTQSPASLSASVGETVTITCRASGNIHNYLAWYQQKQGKSPQLLVYNAKTLADGVPSRFSGSESGTQYSLKINSLQPEDFGSYYCQHFWSTPFTFGSGTKLELK
# Molecular target: human TLR3, full length (human) (UniProt O15455)
# Experiment: cell-based or functional assay
binder,measurement,value
B1,"% inhibition of TLR3 biological activity, poly(I:C) NF-κB reporter gene assay in 293T cells, mAb at 10 µg/ml",38%
same,TLR3 neutralization at saturation concentrations,50%
